Results reported in patent publication US20140228277A1 (Genentech, published 2014).
Positions of bridges follow the written chain, without caps; N, C: chain ends. No end group written: not given here.

Key:
[1] = biological target: T1, recombinant human BACE1 (rhBACE1) (human, UniProt P56817 22-457, limits assumed); assay: spot phage ELISA, signal on BACE1 over signal on BSA
Protocol: After 4 rounds of binding selection, individual phage clones were analyzed in a high-throughput spot phage ELISA (Sidhu, S. S. et al. (2000) Methods Enzymol 328: 333-63) using plate-immobilized BACE1 as the target. The binding signal of the same phage particle to BSA was detected as non-specific binding noise. Clones with phage binding signal to target over 0.5 and signal/noise ratio>3 were considered to be positive clones and were subjected to DNA sequence analysis.

[2] = biological target: T1, recombinant human BACE1 (rhBACE1); assay: spot phage ELISA, plate-immobilized BACE1 against BSA
[3] = biological target: T1, recombinant human BACE1 (rhBACE1); assay: cell-based or functional assay
[4] = biological target: T1, recombinant human BACE1 (rhBACE1); assay: FP competition binding; 12 nM rhBACE1, competitor probe 5-TAMRA-BACE020
Protocol: BACE1 binding assays were carried out in a final volume of 10 μL per well in black 384-well microplates (Proxiplate-Plus; Perkin Elmer, Waltham, Mass.). […] The reaction was permitted to proceed towards equilibrium for 2 h at ambient temperature prior to fluorescence polarization measurement using Envision (Perkin Elmer). The parallel and perpendicular fluorescent emissions measured in each well at 595 nm (excitation 531 nm polarized light) were used to determine the milli-polarization level (mP) using the following formula: mP=1000*(S−G*P)/(S+G*P) where S=parallel emission, P=perpendicular emission and G=0.65.
The affinities of BACE1 peptide ligands were measured using the abovementioned competition binding FP assay for determining IC₅₀ values with serially diluted peptides. A Caliper assay was used to measure the inhibition of BACE1 enzymatic activity by peptide ligands.

T1 sequence (P56817 22-457 limits assumed): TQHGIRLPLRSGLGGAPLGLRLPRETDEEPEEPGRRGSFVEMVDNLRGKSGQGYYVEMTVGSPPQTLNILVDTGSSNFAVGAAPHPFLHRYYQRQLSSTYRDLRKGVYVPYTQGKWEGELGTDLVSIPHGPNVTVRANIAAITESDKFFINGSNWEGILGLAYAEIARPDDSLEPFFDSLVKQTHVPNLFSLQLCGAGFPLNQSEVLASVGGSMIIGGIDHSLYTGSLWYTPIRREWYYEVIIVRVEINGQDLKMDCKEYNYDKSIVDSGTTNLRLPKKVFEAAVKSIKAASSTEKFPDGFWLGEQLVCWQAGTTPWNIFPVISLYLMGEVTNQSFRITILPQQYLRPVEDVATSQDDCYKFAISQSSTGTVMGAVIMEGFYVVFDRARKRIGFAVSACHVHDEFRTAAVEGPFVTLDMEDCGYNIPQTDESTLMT

B1: phage-displayed peptide BACE020 (SEQ ID NO 16) (peptide)
chain: NEESMYCRLLGIGCG
modifications: disulfide 7-14; also: displayed on M13 phage as N-terminal fusion to the coat protein
notes: not shown: M13 major coat protein; peptide fused to its N-terminus
Question: For B1, which signal/noise ratio [1] is on record?
Answer: The signal/noise ratio was over 20.

Question: What about the “fold improvement of signal/noise ratio over parent BACE017” value (“fold improvement of signal/noise ratio” for short) [2] of the same binder?
Answer: Its value is over 5 fold.

B2: BACE020 (peptide)
peptide: Ac-NEESMYCRLLGIGCG-NH2
modifications: disulfide 7-14
SMILES: CC[C@H](C)[C@@H]1NC(=O)CNC(=O)[C@H](CC(C)C)NC(=O)[C@H](CC(C)C)NC(=O)[C@H](CCCNC(=N)N)NC(=O)[C@@H](NC(=O)[C@H](Cc2ccc(O)cc2)NC(=O)[C@H](CCSC)NC(=O)[C@H](CO)NC(=O)[C@H](CCC(=O)O)NC(=O)[C@H](CCC(=O)O)NC(=O)[C@H](CC(N)=O)NC(C)=O)CSSC[C@@H](C(=O)NCC(N)=O)NC(=O)CNC1=O
notes: also called BACE20; BACE-20
Question: For B2, which “Caliper (MCE) BACE1 activity assay IC50” value [3] is on record?
Answer: Its value is 11 nM.

Question: What about the “HTRF BACE1 activity assay IC50” value [3] of the same binder?
Answer: The value was 12 nM.

Question: What about the IC50 [4] of the same binder?
Answer: The IC50 was 11 nM.

B3: phage-displayed peptide BACE019 (SEQ ID NO 15) (peptide)
chain: NELSPYCRLMGLGCD
notes: as for B1
Question: Which signal/noise ratio [1] does the source give for B3 here?
Answer: The signal/noise ratio was over 20.

Question: And the “fold improvement of signal/noise ratio” value [2]?
Answer: The value was over 5 fold.

B4: phage-displayed peptide BACE021 (SEQ ID NO 17) (peptide)
chain: PEESLYCRLLALGCG
notes: as for B1
Question: Which results are given for B4?
Answer: signal/noise ratio [1]: > 20; fold improvement of signal/noise ratio over parent BACE017 [2]: > 5 fold

B5: phage-displayed peptide BACE018 (SEQ ID NO 14) (peptide)
chain: KEESIYCRLMGLGCG
notes: as for B1
Question: Which signal/noise ratio [1] does the source give for B5 here?
Answer: Its signal/noise ratio is over 20.

Question: What about the “fold improvement of signal/noise ratio” value [2] of the same binder?
Answer: The value was over 5 fold.

Question: With Ac-PEESLYCRLLALGCG-NH2 (disulfide 7-14 (inferred), also called BACE-21) [BACE021] as the binder, how does the “Caliper (MCE) BACE1 activity assay IC50” value [3] read?
Answer: Its value is 17 nM.

Question: What about the “HTRF BACE1 activity assay IC50” value [3] of the same binder?
Answer: The value was 22 nM.

Question: What about the IC50 [4] of the same binder?
Answer: Its IC50 is 25 nM.
